{"source": "paper PMC2628979", "about": "(Molecular microbiology, 2007)", "molecules": {"B1": {"name": "N-terminal domain of carcinoembryonic antigen (N-CEA) (domain or fragment)", "chain": "AKLTIESTPFNVAEGKEVLLLVHNLPQHLFGYSWYKGERVDGNRQIIGYVIGTQQATPGPAYSGREIIYPNASLLIQNIIQNDTGFYTLHVIKSDLVNEEATGQFRVYPEL"}, "B2": {"name": "N-CEA Q44R (domain or fragment)", "chain": "AKLTIESTPFNVAEGKEVLLLVHNLPQHLFGYSWYKGERVDGNRRIIGYVIGTQQATPGPAYSGREIIYPNASLLIQNIIQNDTGFYTLHVIKSDLVNEEATGQFRVYPEL"}, "B3": {"name": "N-CEA S32N (domain or fragment)", "chain": "AKLTIESTPFNVAEGKEVLLLVHNLPQHLFGYNWYKGERVDGNRQIIGYVIGTQQATPGPAYSGREIIYPNASLLIQNIIQNDTGFYTLHVIKSDLVNEEATGQFRVYPEL"}, "B4": {"name": "N-CEA F29R (domain or fragment)", "chain": "AKLTIESTPFNVAEGKEVLLLVHNLPQHLRGYSWYKGERVDGNRQIIGYVIGTQQATPGPAYSGREIIYPNASLLIQNIIQNDTGFYTLHVIKSDLVNEEATGQFRVYPEL"}}, "key": {"[1]": {"target": "TMR labeled H27C N-CEA mutant (human) (UniProt P06731)", "assay": "absorbance of tetramethylrhodamine dimers"}, "SEC": {"target": "the molecule itself", "assay": "SEC"}, "AUC": {"target": "the molecule itself", "assay": "AUC"}, "[2]": {"target": "B1", "assay": "SPR"}, "N-CEA F29R": {"target": "B4", "assay": "SPR"}, "N-CEA S32N": {"target": "B3", "assay": "SPR"}, "N-CEA V39A": {"target": "T1, N-CEA V39A (human, UniProt P06731 34-144, V39A)", "T1 sequence": "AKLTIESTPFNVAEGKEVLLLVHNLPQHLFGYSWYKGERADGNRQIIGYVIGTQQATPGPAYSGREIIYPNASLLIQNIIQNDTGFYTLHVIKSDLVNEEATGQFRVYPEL", "assay": "SPR"}, "N-CEA Q44R": {"target": "B2", "assay": "SPR"}, "[3]": {"target": "B1", "assay": "SPR", "remark": "listed apart in the source"}, "[4]": {"target": "B1", "assay": "SPR", "remark": "listed apart in the source"}, "cross-linking": {"target": "the molecule itself", "assay": "cross-linking"}}, "note": "Read-outs that look alike come from different tables or passages of the source."}
{"molecule": "DraE monomer (DraE-dsc) (natural protein)", "values": [{"measurement": "518/555 absorbance ratio of TMR-labeled N-CEA after dilution with DraE", "setting": "[1]", "result": 0.48}]}
{"molecule": "N-CEA L95C (domain or fragment) AKLTIESTPFNVAEGKEVLLLVHNLPQHLFGYSWYKGERVDGNRQIIGYVIGTQQATPGPAYSGREIIYPNASLLIQNIIQNDTGFYTLHVIKSDCVNEEATGQFRVYPEL", "values": [{"measurement": "stoichiometry N", "setting": "SEC", "result": 2}]}
{"molecule": "B1", "values": [{"measurement": "Kd", "setting": "AUC", "result": 0.8, "unit": "µM"}, {"measurement": "stoichiometry N", "setting": "SEC", "result": 2}]}
{"molecule": "N-CEA I91A (domain or fragment) AKLTIESTPFNVAEGKEVLLLVHNLPQHLFGYSWYKGERVDGNRQIIGYVIGTQQATPGPAYSGREIIYPNASLLIQNIIQNDTGFYTLHVAKSDLVNEEATGQFRVYPEL", "values": [{"measurement": "Kd", "setting": "[2]", "result": "55 ± 6", "unit": "µM"}]}
{"molecule": "B2", "values": [{"measurement": "Kd", "setting": "[2]", "result": "~130", "unit": "µM"}]}
{"molecule": "B3", "values": [{"measurement": "Kd", "setting": "[2]", "result": "~200", "unit": "µM"}]}
{"molecule": "B4", "values": [{"measurement": "Kd", "setting": "[2]", "result": "~200", "unit": "µM"}]}
{"molecule": "N-terminal domain of CEACAM1 (N-CEACAM1) (domain or fragment) QLTTESMPFNVAEGKEVLLLVHNLPQQLFGYSWYKGERVDGNRQIVGYAIGTQQATPGPANSGRETIYPNASLLIQNVTQNDTGFYTLQVIKSDLVNEEATGQFHVYP", "values": [{"measurement": "Kd", "setting": "N-CEA F29R", "result": "~100", "unit": "µM"}, {"measurement": "Kd", "setting": "N-CEA S32N", "result": "~100", "unit": "µM"}, {"measurement": "Kd", "setting": "N-CEA V39A", "result": "~100", "unit": "µM"}, {"measurement": "Kd", "setting": "N-CEA Q44R", "result": "72 ± 9", "unit": "µM"}]}
{"molecule": "N-terminal domain of CEACAM6 (N-CEACAM6) (domain or fragment) KLTIESTPFNVAEGKEVLLLAHNLPQNRIGYSWYKGERVDGNSLIVGYVIGTQQATPGPAYSGRETIYPNASLLIQNVTQNDTGFYTLQVIKSDLVNEEATGQFHVYP", "values": [{"measurement": "Kd", "setting": "[3]", "result": "~100", "unit": "µM"}, {"measurement": "Kd", "setting": "N-CEA F29R", "result": "~200", "unit": "µM"}, {"measurement": "Kd", "setting": "N-CEA S32N", "result": "~200", "unit": "µM"}, {"measurement": "Kd", "setting": "N-CEA Q44R", "result": "28 ± 3", "unit": "µM"}, {"measurement": "Kd", "setting": "[4]", "result": "65 ± 7", "unit": "µM"}]}
{"molecule": "N-CEA F29I (domain or fragment) AKLTIESTPFNVAEGKEVLLLVHNLPQHLIGYSWYKGERVDGNRQIIGYVIGTQQATPGPAYSGREIIYPNASLLIQNIIQNDTGFYTLHVIKSDLVNEEATGQFRVYPEL", "values": [{"measurement": "stoichiometry N", "setting": "SEC", "result": 2}]}
{"molecule": "N-CEA D40A (domain or fragment) AKLTIESTPFNVAEGKEVLLLVHNLPQHLFGYSWYKGERVAGNRQIIGYVIGTQQATPGPAYSGREIIYPNASLLIQNIIQNDTGFYTLHVIKSDLVNEEATGQFRVYPEL", "values": [{"measurement": "stoichiometry N", "setting": "SEC", "result": 2}]}
{"molecule": "N-CEA V39C mutant (domain or fragment) AKLTIESTPFNVAEGKEVLLLVHNLPQHLFGYSWYKGERCDGNRQIIGYVIGTQQATPGPAYSGREIIYPNASLLIQNIIQNDTGFYTLHVIKSDLVNEEATGQFRVYPEL", "values": [{"measurement": "stoichiometry N", "setting": "cross-linking", "result": 2}]}
{"molecule": "N-CEA L74A (domain or fragment) AKLTIESTPFNVAEGKEVLLLVHNLPQHLFGYSWYKGERVDGNRQIIGYVIGTQQATPGPAYSGREIIYPNASLAIQNIIQNDTGFYTLHVIKSDLVNEEATGQFRVYPEL", "values": [{"measurement": "stoichiometry N", "setting": "SEC", "result": 2}]}
{"molecule": "N-CEA Q76A (domain or fragment) AKLTIESTPFNVAEGKEVLLLVHNLPQHLFGYSWYKGERVDGNRQIIGYVIGTQQATPGPAYSGREIIYPNASLLIANIIQNDTGFYTLHVIKSDLVNEEATGQFRVYPEL", "values": [{"measurement": "stoichiometry N", "setting": "SEC", "result": 2}]}
{"molecule": "N-CEA H89Q (domain or fragment) AKLTIESTPFNVAEGKEVLLLVHNLPQHLFGYSWYKGERVDGNRQIIGYVIGTQQATPGPAYSGREIIYPNASLLIQNIIQNDTGFYTLQVIKSDLVNEEATGQFRVYPEL", "values": [{"measurement": "stoichiometry N", "setting": "SEC", "result": 2}]}
{"molecule": "N-CEA L95A (domain or fragment) AKLTIESTPFNVAEGKEVLLLVHNLPQHLFGYSWYKGERVDGNRQIIGYVIGTQQATPGPAYSGREIIYPNASLLIQNIIQNDTGFYTLHVIKSDAVNEEATGQFRVYPEL", "values": [{"measurement": "stoichiometry N", "setting": "SEC", "result": 2}]}
